Reference: article PMC11463774, “Structure of the Nmd4-Upf1 complex supports conservation of the nonsense-mediated mRNA decay pathway between yeast and humans” (PLOS Biology, 2024)

T1: Upf1-HD-His6 (S. cerevisiae Upf1 helicase domain, residues 221 to 851) (S. cerevisiae, UniProt P30771 221-851)
T1 construct: Upf1, S. cerevisiae, helicase domain, residues 221 to 851; Used in ITC and, by the buffer D200 preparation, in the ATPase assays; also called yeast Upf1 helicase domain; source: E. coli BL21 (DE3) Gold, purified (TALON, HiTrap Heparin, S200 SEC); not shown: His6, C-terminal, kept
T1 sequence (looked up): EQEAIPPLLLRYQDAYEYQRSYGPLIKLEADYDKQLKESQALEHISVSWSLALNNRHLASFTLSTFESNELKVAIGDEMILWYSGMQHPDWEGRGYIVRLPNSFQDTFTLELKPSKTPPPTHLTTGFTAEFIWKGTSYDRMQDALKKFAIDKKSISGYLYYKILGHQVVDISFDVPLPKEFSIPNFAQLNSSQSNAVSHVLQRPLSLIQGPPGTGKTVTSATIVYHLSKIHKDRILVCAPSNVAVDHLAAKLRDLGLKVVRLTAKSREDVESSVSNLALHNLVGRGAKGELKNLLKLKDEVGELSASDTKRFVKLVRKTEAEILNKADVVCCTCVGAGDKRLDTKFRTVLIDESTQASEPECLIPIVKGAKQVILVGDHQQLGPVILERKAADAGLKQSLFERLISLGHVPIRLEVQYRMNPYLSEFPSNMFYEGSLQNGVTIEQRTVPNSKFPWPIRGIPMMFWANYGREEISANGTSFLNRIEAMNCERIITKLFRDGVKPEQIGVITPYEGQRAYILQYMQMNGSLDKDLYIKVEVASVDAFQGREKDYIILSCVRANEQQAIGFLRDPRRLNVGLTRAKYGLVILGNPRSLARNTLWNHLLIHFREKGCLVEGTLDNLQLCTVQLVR

T2: His6-ZZ-Nmd4 FL (Saccharomyces cerevisiae, UniProt Q12129 1-218)
T2 sequence: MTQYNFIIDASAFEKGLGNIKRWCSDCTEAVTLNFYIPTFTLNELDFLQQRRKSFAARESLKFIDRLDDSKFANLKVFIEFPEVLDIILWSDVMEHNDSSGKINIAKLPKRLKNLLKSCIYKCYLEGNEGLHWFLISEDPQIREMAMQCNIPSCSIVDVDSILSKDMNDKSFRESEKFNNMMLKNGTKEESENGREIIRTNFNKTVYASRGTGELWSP

T3: Upf1-HD-His6 (Saccharomyces cerevisiae, UniProt P30771 221-851)
T3 sequence: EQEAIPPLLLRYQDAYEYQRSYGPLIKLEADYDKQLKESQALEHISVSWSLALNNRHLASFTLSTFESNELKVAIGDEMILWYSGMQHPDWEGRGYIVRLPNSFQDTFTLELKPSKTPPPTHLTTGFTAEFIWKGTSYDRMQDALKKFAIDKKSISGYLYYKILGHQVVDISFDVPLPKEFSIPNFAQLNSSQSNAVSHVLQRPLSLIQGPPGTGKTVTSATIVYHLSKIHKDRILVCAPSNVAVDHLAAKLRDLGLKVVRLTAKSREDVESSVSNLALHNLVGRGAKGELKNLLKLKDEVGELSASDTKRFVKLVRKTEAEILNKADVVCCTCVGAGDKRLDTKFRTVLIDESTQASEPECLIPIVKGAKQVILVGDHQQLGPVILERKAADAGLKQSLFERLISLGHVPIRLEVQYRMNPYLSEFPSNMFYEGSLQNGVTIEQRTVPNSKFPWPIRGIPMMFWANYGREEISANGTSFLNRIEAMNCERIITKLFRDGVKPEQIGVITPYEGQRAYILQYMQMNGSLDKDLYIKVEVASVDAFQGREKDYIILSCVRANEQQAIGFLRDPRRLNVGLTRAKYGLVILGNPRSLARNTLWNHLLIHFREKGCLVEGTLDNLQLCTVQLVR

T4: His6-ZZ-Nmd4 FL;Upf1-HD-His6 (Saccharomyces cerevisiae;Saccharomyces …, UniProt Q12129;P30771 1-218;221-851, |)
T4 sequence 1: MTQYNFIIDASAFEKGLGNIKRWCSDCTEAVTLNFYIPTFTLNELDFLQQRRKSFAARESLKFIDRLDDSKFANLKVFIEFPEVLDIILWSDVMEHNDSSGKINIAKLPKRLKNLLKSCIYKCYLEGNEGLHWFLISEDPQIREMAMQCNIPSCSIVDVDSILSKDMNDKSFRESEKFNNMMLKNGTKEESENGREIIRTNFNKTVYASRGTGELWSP
T4 sequence 2: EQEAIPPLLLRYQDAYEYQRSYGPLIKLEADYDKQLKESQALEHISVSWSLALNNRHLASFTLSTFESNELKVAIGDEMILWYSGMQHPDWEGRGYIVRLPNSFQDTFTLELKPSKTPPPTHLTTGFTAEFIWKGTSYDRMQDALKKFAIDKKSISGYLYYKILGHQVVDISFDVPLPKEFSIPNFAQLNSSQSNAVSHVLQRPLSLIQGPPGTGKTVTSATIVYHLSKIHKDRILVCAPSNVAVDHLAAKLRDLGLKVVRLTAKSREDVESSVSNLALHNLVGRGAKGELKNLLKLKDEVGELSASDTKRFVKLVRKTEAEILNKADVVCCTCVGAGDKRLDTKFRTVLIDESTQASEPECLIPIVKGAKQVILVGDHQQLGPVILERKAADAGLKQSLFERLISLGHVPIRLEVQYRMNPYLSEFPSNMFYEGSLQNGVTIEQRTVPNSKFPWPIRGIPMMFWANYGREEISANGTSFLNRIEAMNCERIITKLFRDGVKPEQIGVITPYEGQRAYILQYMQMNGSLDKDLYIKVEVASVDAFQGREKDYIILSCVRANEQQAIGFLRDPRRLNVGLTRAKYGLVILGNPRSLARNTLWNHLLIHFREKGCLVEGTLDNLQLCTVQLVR


Key:
[1] = biological target: T1, Upf1-HD-His6 (S. cerevisiae Upf1 …); experiment: ITC; His6-ZZ-Nmd4 proteins (260 μM full-length and « arm », 330 μM PIN) or His6-ZZ (277 μM) injected into Upf1-HD-His6 (30 to 35 μM); 20°C; 100 mM Bis-Tris pH 6.5, 200 mM NaCl, 5 mM MgCl2, 5 mM 2-mercaptoethanol; one-binding-site model; settings: both partners purified
His6-ZZ-Nmd4 FL = biological target: T2, His6-ZZ-Nmd4 FL; experiment: ITC; 5 mM Mg2+; ITC: 100 mM Bis-Tris pH 6.5, 133 mM NaCl, 5 mM MgCl2, 5 mM 2-mercaptoethanol, 20 C; protein 20-30 uM in cell titrated with 230-280 uM RNA; settings: protein: recombinant; tags: N-terminal His6-ZZ (3C cleavable, kept for ITC); single strand
Upf1-HD-His6 = biological target: T3, Upf1-HD-His6; experiment: ITC; no nucleotide; 5 mM Mg2+; ITC: 100 mM Bis-Tris pH 6.5, 133 mM NaCl, 5 mM MgCl2, 5 mM 2-mercaptoethanol, 20 C; protein 20-30 uM in cell titrated with 230-280 uM RNA; settings: protein: recombinant; tags: C-terminal His6; single strand
[2] = biological target: T4, His6-ZZ-Nmd4 FL;Upf1-HD-His6; experiment: ITC; preformed Nmd4/Upf1-HD complex; no nucleotide; 5 mM Mg2+; n 0.47; ITC: 100 mM Bis-Tris pH 6.5, 133 mM NaCl, 5 mM MgCl2, 5 mM 2-mercaptoethanol, 20 C; protein 20-30 uM in cell titrated with 230-280 uM RNA; settings: protein: recombinant;recombinant; tags: N-terminal His6-ZZ (3C cleavable, kept for ITC);C-terminal His6; copies: 1;1; single strand

Row | Kd [1] [nM] | dH [1] [kcal/mol] | stoichiometry N [1] | Binder | Kd (His6-ZZ-Nmd4 FL) [nM] | Kd (Upf1-HD-His6) [nM] | Kd [2] [nM]
1 | 2100 | -14.8 | 1.08 | His6-ZZ-Nmd4 full-length protein (S. cerevisiae) (natural protein, UniProt Q12129 1-218, looked up, also called His6-ZZ-Nmd4 FL; full-length Nmd4; source: E. coli BL21 (DE3) Gold, purified (Ni-NTA, HiTrap Heparin, S75 SEC); not shown: His6, N-terminal, kept; ZZ (tandem Z-domain of S. aureus protein A), N-terminal, kept) MTQYNFIIDASAFEKGLGNIKRWCSDCTEAVTLNFYIPTFTLNELDFLQQRRKSFAARESLKFIDRLDDSKFANLKVFIEFPEVLDIILWSDVMEHNDSSGKINIAKLPKRLKNLLKSCIYKCYLEGNEGLHWFLISEDPQIREMAMQCNIPSCSIVDVDSILSKDMNDKSFRESEKFNNMMLKNGTKEESENGREIIRTNFNKTVYASRGTGELWSP | – | – | –
2 | – | – | – | UUUUUUUUUUUUUUUUUUUUUUUUUUUUUU (ssRNA) [RNA poly(U)30] | 8100 ± 2950 | 1030 ± 280 | 440 ± 210
3 | 1960 | -12.4 | 0.98 | His6-ZZ-Nmd4 « arm » (residues 168 to 218) (domain or fragment, S. cerevisiae, UniProt Q12129 168-218, looked up, Nmd4, S. cerevisiae, C-terminal « arm », residues 168 to 218; also called « arm » region; source: E. coli BL21 (DE3) Gold, purified; not shown: His6, N-terminal, kept; ZZ (tandem Z-domain of S. aureus protein A), N-terminal, kept) NDKSFRESEKFNNMMLKNGTKEESENGREIIRTNFNKTVYASRGTGELWSP | – | – | –
